From patent US6972319B1, “Pituitary adenylate cyclase activating peptide (PACAP)receptor 3 (R3) agonists and their pharmacological methods of use” (priority 1999, dated 2005) come the findings set out here.

First the molecules themselves.
T1: PACAP-R3 (human, UniProt P41587 24-438)
T1 sequence (looked up): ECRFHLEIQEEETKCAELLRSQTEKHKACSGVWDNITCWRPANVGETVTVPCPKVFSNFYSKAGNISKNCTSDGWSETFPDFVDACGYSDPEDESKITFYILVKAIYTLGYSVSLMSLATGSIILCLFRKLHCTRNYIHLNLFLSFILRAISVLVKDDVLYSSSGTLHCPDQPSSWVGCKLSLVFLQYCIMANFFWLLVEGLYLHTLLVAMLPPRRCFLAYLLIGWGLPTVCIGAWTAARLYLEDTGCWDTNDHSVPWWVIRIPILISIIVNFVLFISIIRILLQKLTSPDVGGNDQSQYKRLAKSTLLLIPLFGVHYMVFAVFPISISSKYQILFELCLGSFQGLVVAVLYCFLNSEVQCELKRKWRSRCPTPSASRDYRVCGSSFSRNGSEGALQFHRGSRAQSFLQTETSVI

The experiment concerns the target T1, PACAP-R3. Kind of experiment: cell-based or functional assay.
As for HSDAVFTDNYTRLRKQLAAKKYLNDIKKNQ [R3P35], the “R3 EC50” value worked out at 2.6 nM and the “R3 Selectivity” value was > 40. With HSDAVFTDNYTRLRKQMAAKKYLNSIKNKG [R3P158], the “R3 EC50” value turned out to be 0.07 nM and the “R3 Selectivity” value was 90. The matching figures for HSDAVFTENYTKLRKQLAAKKYLNDLKKGGTSWCEPGWCR [R3P19]: 1.4 nM and 30.

As to HSDAVFTDNYTRLRKQLAAKKYLNDIKK [R3P33], the “R3 EC50” value came out at 0.5 nM and the “R3 Selectivity” value was > 200. HSDAVFTDNYTRLRKQMAAKKYLNSIKNKI [R3P160]: the “R3 EC50” value was 0.2 nM and the “R3 Selectivity” value amounted to 500.

HSDAVFTDNYTRLRKQLAAKKYLNDIKKKRY [R3P36]: the “R3 EC50” value is 0.4 nM and the “R3 Selectivity” value was > 200. The matching figures for HSDAVFTDNYTRLRKQLAAKKYLNDIKKGG [R3P31]: 0.3 nM and > 300. As to HSDAVFTDNYTRLRKQLAAKKYLNDIKKG [R3P32], the “R3 EC50” value turned out to be 0.4 nM and the “R3 Selectivity” value is 200. With HSDAVFTDNYTRLRKQMAVKKYLNSIKK [R3P41], the “R3 EC50” value stood at 0.08 nM and the “R3 Selectivity” value is 100.

Take HSDAVFTDNYTRLRKQMAAKKYLNDIKKGGT [R3P20]: the “R3 EC50” value worked out at 1.4 nM and the “R3 Selectivity” value came out at 230. As for HSDAVFTDNYTRLRKQLAVKKYLNDIKNGGT [R3P29], the “R3 EC50” value was 0.5 nM and the “R3 Selectivity” value is > 200. HSDAVFTDNYTRLRKQLAAKKYLNSIKNGGT [R3P30]: the “R3 EC50” value turned out to be 0.4 nM and the “R3 Selectivity” value came to 50. Regarding HSDAVFTDNYTRLRKQLAAKKYLNSIKKGGT [R3P22], the “R3 EC50” value was found to be 1.6 nM and the “R3 Selectivity” value was determined as 24. Turning to HSDAVFTDNYTRLRKQLAVKKYLNDIKKGGT [R3P21], the “R3 EC50” value was determined as 0.3 nM and the “R3 Selectivity” value came out at 60.

Take HSDAVFTDNYTRLRKQLAVKKYLNSIKKGGT [R3P25]: the “R3 EC50” value turned out to be 0.7 nM and the “R3 Selectivity” value was 20. Consider HSDAVFTDNYTRLRKQMAAKKYLNSIKKGGT [R3P26], for which the “R3 EC50” value is 0.55 nM and the “R3 Selectivity” value was > 180. Consider HSDAVFTDNYTRLRKQMAVKKYLNSILK [R3P43], for which the “R3 EC50” value stood at 0.08 nM and the “R3 Selectivity” value amounted to 10. With HSDAVFTDNYTRLRKQMAAKKYLNSIKNKF [R3P157], the “R3 EC50” value was 0.3 nM and the “R3 Selectivity” value came to 170. Regarding HSDAVFTDNYTRLRKQMAAKKYLNSIKNKH [R3P159], the “R3 EC50” value turned out to be 0.5 nM and the “R3 Selectivity” value was determined as 400. The matching figures for HSDAVFTDNYTRLRKQLAAKKYLNDIKKQ [R3P34]: 1.4 nM and > 70. As for HSDAVFTDNYTRLRKQMAAKKYLNSIKNKK [R3P161], the “R3 EC50” value amounted to 0.2 nM and the “R3 Selectivity” value came out at 300. HSDAVFTDNYTRLRKQMAAKKYLNSIKNKM [R3P163]: the “R3 EC50” value turned out to be 0.2 nM. As to HSDAVFTDNYTRLRKQMAVKKYLNSIKN [R3P42], the “R3 EC50” value turned out to be 0.03 nM and the “R3 Selectivity” value was 10.

HSDAVFTDNYTRLRKQMAAKKYLNSIKNKN [R3P164]: the “R3 EC50” value turned out to be 0.3 nM and the “R3 Selectivity” value was 300.
